The values that follow are results of earlier work, collected in paper PMC9784434.

By Kd is commonly meant the constant that tells how readily two partners part at equilibrium.

This series addresses NKG2D (Homo sapiens) (UniProt P26718).
Sequence of UniProt P26718 (P26718 whole entry): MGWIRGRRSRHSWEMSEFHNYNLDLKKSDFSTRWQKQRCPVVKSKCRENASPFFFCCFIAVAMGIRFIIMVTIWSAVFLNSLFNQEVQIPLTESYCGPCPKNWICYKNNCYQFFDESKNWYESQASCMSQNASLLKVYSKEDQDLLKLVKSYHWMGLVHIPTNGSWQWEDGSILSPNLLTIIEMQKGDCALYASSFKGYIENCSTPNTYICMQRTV

Take MICB (from UniProt Q29980): the Kd was 800 nM.
